Reference: article PMC7650249

Tests used:
[1] = biological target: activated protein C S12C/R312C mutant, labeled with AF555/AF647 (human) (UniProt P04070); assay: other fluorescence titration; single molecule FRET of freely diffusing labeled protein C or APC (150 pM) titrated with thrombin S195A; shift of the peak center of the low FRET population, single-site fit; 20 mM Tris, 145 mM NaCl, 0.02% Tween 20, pH 7.5, 10 mM EDTA, 20 °C
[2] = biological target: protein C S12C/R312C mutant, labeled with AF555/AF647 (two-chain zymogen) (human) (UniProt P04070); assay: as above

A Kd [1] of 1100 nM and a Kd [2] of 860 nM were found for “thrombin, catalytically inactive mutant S195A (enzyme)” in this work.
